Reference: patent publication CN101407546A (UNIV CHINA PHARMA, dated 2009)

Target: 人肿瘤坏死因子-α (hTNF-α) (human, UniProt P01375 77-233)
Experiment: cell-based or functional assay

人肿瘤坏死因子-α (hTNF-α), sequence (P01375 77-233 limits assumed): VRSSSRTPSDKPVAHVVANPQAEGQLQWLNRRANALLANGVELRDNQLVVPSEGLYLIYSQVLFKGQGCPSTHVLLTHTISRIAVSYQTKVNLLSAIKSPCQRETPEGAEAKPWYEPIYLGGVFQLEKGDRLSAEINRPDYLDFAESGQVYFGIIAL

B1: 全人源抗hTNF-α单链抗体F6 (scFv, V domains shown)
VH: QVQLLQSAAEVKKPGESLKISCKGSGYSFTSYWIGWVRQMPGKGLEWMGIIYPGDSDTRYSPSFQGQVTISADKSISTAYLQWSSLKASDTAVYYCARFCSPWGQGTLVTV
VL: LQSVLTQPPSVSEAPRQRVTISCSGSSSNIGNNAVNWYQQLPGKAPKLLIYYDDLLPSGVSDRFSGSKSGTSASLAISGLQSEDEADYYCAAWDDSLCVFGGGTKLTVLG
对TNF-α诱导的L929细胞毒性的抑制作用 (L929 cytotoxicity neutralisation, MTT) IC50: ~15 nM
